Data from paper PMC5984089, “FBXW7 regulates DISC1 stability via the ubiquitin-proteosome system” (Molecular Psychiatry, 2017).
Values joined by “and” are separate entries in the source; they are usually repeats but may differ in a detail not shown here. Equal entries are not always repeated. Each block holds one molecule with its values, some of them ahead of it. Non-standard residues stand in square brackets, D forms with d. Residues, ends and D or L forms follow the SMILES beside them. No end group written: not given here. pT = C[C@@H](OP(=O)(O)O)[C@H](N)C(=O)O; pS = N[C@@H](COP(=O)(O)O)C(=O)O

Legend:
Skp1-FBXW7 complex = target: T1, Skp1-FBXW7 complex (Homo sapiens, UniProt Q969H0); experiment: Isothermal titration calorimetry of DISC1 peptides; format: binding; conditions: for Kd: NANO ITC, 20 mM HEPES-Na (pH 7.4), 200 mM NaCl, 2 mM β-mercaptoethanol, mean ± s.d. from two to three independent measurements, read-out: dissociation constant (KD)
T1 construct: human FBXW7 (residues 263–707); His6 (N, cleaved yes); made in house; host or cells: Escherichia coli
Procedure: Amino-terminal His6 tagged human FBXW7 (residues 263–707) and truncated Skp1 (Schulman et al., 2000) were co-expressed as a dicistronic message in Escherichia coli. The Skp1-FBXW7 complexes were purified by Ni2+-nitrilotriacetic acid (NTA) affinity chromatography followed by tobacco eth virus (TEV) protease cleavage of the His6 tag, and by anion exchange and gel filtration chromatography. For crystallization, the Skp1-FBXW7 complex was concentrated to 48 mg ml^–1 by ultrafiltration in 20 mM HEPES-Na (pH 7.4), 200 mM NaCl and 5 mM dithiothreitol (DTT). The DISC1 peptides were synthesized chemically and purified by HPLC.
All measurements were performed at 25 °C with a NANO ITC System (TA Instruments, New Castle, DE, USA). Protein samples were dialyzed against a solution containing 20 mM HEPES-Na (pH 7.4), 200 mM NaCl, and 2 mM β-mercaptoethanol. Typically, the concentrations of Skp1-FBXW7 and DISC1 peptides were […] and 1 mM, respectively. Titration data were analyzed using the TA Nano Analyze software, and the reported dissociation constants and their standard deviations were derived from two to three independent measurements.
To test whether phosphorylation of both the Thr198 and Ser202 sites in DISC1 is required for binding to FBXW7, we used isothermal titration calorimetry (ITC) to measure the binding affinity of various phosphorylated DISC1 peptides to the Skp1-FBXW7 complex (Supplementary Figure 5). […] Thus, specific interaction of DISC1 with the Skp1-FBXW7 complex requires simultaneous phosphorylation at Thr198 and Ser202 within the DISC1 PD motif.

[1] = target: purified protein complex containing 6His-FBXW7 and Skp1, Q969H0;P63208; experiment: peptide array overlay, anti-6His detection, densitometry; conditions: read off a plot
[2] = test system: purified protein complex containing 6His-FBXW7 and Skp1; experiment: Peptide array overlay with 6His-FBXW7/Skp1, substitution and truncation analysis; format: binding, human; conditions: for binding potential for the FBXW7 complex vs dually-phosphorylated control sequence: densitometry of 6His probe
From the text: Peptide libraries were produced by automatic SPOT synthesis and synthesized on continuous cellulose membrane supports on Whatman 50 cellulose membranes using Fmoc-chemistry with the AutoSpot-Robot ASS 222 (Intavis Bioanalytical Instruments, Köln, Germany) as previously described.[17] Phosphorylation of peptide array peptides by constitutively active GSK3 (14-306, Millipore UK) was undertaken as previously described.[18] Phosphorylation was detected using a phospho-serine specific antibody (ab9332, Abcam, UK).
Figure 2 FBXW7 binds DISC1 via a PD motif to regulate turnover of DISC1. (a) HEK293 cells were transfected with FLAG-tagged FBXW7 or FLAG-tagged FBXW7 without the F-Box substrate-binding domain (Δ-F). Lysates were prepared and blotted for DISC1, c-MYC, FLAG and GAPDH. Relative levels of DISC1 expression were calculated (right hand panel). *=P<0.05 as measured by Student’s t-test, n=3 (b) HEK293 cells were transfected with FLAG-FBXW7 and GFP-DISC1 (upper panels) or FLAG-FBXW7 and V5-DISC1 (lower panels). FLAG was immunoprecipitated from cell lysates and blotted for FLAG, GFP and V5. (c) HEK293 cells were transfected with FLAG-DISC1. FLAG was immunoprecipitated from cell lysates and blotted for FLAG and endogenous FBXW7. (d) and (e) Peptide arrays of sequences containing the DISC1 PD were overlayed with a purified protein complex containing 6His-FBXW7 and Skp1. Arrays were then probed for His tag. (f) Sequences of known FBXW7 substrates contain a PD that is also present in DISC1.
Figure 3 Substitution analysis pinpoints novel binding motifs for FBXW7. (a) Peptide array grids containing substitution of residues within the core binding motif domain ^197PTPPGSH^202 (with a range of native and non-native residues) were overlaid with a purified protein complex containing 6His-FBXW7 and Skp1. mD and mE are N-methyl aspartic acid and N-methyl glutamic acids respectively. (d) and (e) are the D-forms of aspartic acid and glutamic acid. (b) Arrays were then probed for 6His and spots that were over 200% of the control identified by densitometry.

DISC1, HEK293 cells = experiment: Endogenous DISC1 protein level in HEK293 cells, western blot; format: cell-based, human; conditions: cycloheximide 50 μg ml^–1, Figure 1a, n=3
Procedure: HEK293 cells were sourced from ATCC (CRL-1573) and cultured as described in the manufacturer’s protocol. DMEM (SIGMA) supplemented with 10% fetal bovine serum, 2 mM L-glutamine, […] penicillin-streptomycin at 37 °C in a humidified atmosphere of 5% CO2. The cells were passaged at about 80% confluency. Cells were transfected with plasmid DNA using polyfect transfection reagent (Qiagen) according to the manufacturer’s instructions. HEK293 cells were treated with the pharmacological agents cycloheximide (C7698) and MG132 (M7449) (Sigma-Aldrich) or DISC1 disruptor peptides (custom synthesized by Severn Biotech) as described in the text.
Briefly, detergent-soluble proteins were isolated from cells by disruption in lysis buffer 20 mM Tris-HCl (pH 7.5), 150 mM NaCl, 1 mM Na2EDTA, 1 mM EGTA, 1% triton, 2.5 mM sodium pyrophosphate, 1 mM β-glycerophosphate, 1 mM Na3VO4, 1 μg ml^–1 leupeptin, 10 mM DTT with Roche protease inhibitor, phosSTOP (Roche, 04906837001). Detergent-insoluble proteins were removed by centrifugation at 10 000 g for 10 min, and the soluble fraction was retained. Cell lysates were adjusted to equal protein amount (1 μg μl^–1) using cell lysis buffer. Cell lysates normalized for the protein concentration were incubated with mouse IgG (Millipore, 12487) Protein A agarose beads for 2 h at 4 °C. […] The complexes were analyzed on SDS PAGE. […]

[3] = target: Skp1-FBXW7 complex (human FBXW7 residues 263-707 with truncated Skp1, His6 tag cleaved) (UniProt Q969H0); experiment: ITC; 25 °C, NANO ITC System; 20 mM HEPES-Na (pH 7.4), 200 mM NaCl, 2 mM β-mercaptoethanol; Skp1-FBXW7 and DISC1 peptides typically 50 mM and 1 mM (so in the source); two to three independent measurements
[4] = target: T2, human FBXW7 (residues 263-707) (human, UniProt Q969H0 263-707); experiment: crystal structure; Skp1-FBXW7 mixed with a twofold molar excess of the DISC1 peptide; crystallised from 100 mM HEPES-Na (pH 7.4), 1.2 M Li2SO4, hanging drop, 4 °C; one complex in the asymmetric unit; conditions: both partners purified
T2 construct: human FBXW7, residues 263-707; The FBXW7 chain of m1, written alone for the pairs inside the crystal structure; also called Fbw7; source: E. coli, co-expressed with truncated Skp1, purified as the complex; not shown: His6, N-terminal, cleaved

[5] = ITC, 25 °C, pH 7.4, singly phosphorylated peptides

T1 sequence (Q969H0 263-707, one chain of several): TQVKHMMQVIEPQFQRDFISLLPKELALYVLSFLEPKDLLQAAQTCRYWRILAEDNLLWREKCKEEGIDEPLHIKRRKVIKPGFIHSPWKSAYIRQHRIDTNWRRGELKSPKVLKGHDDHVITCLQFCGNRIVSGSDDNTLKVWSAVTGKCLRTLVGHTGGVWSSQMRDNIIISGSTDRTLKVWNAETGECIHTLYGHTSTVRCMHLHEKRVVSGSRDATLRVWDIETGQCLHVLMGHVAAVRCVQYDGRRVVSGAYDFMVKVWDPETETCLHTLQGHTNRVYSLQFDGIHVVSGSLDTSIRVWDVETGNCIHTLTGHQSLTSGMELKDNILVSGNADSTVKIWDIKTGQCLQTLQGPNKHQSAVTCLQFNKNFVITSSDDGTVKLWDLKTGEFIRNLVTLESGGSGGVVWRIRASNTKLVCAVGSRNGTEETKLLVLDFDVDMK
T2 sequence (Q969H0 263-707): as the sequence (Q969H0 263-707, one chain of several) above

Molecule: DISC1 peptide (residues 197-203, phosphorylated at Thr198 and Ser202) pT198e (D-Glu); pS202mE (N-methyl Glu)
percent of parent [1]: 210 % of control and 280 % of control

Molecule: GmEPPGmEH [I11, substituted DISC1 PD core peptide GmEPPGmEH]
binding potential for the FBXW7 complex vs dually-phosphorylated control sequence [2]: more than a twofold increase in binding potential

Molecule: C[C@@H]1C[C@@H]([C@H](O)CC2CC(=O)NC(=O)C2)C(=O)[C@@H](C)C1 [cycloheximide, reference compound]
endogenous DISC1 level after cycloheximide (DISC1, HEK293 cells): rapidly decreased

Molecule: C[C@@H](OP(=O)(O)O)[C@H](NC(=O)[C@@H]1CCCN1)C(=O)N1CCC[C@H]1C(=O)N1CCC[C@H]1C(=O)NCC(=O)N[C@@H](COP(=O)(O)O)C(=O)N[C@@H](Cc1c[nH]cn1)C(=O)O [DISC1^197–203/pT198/pS202] (H-P[pT]PPG[pS]H-OH)
Kd (Skp1-FBXW7 complex; ITC, 25 °C): 17 ± 2 µM

Molecule: PTPPGSH
association of FBXW7 complex / core binding sequence ([2]; phosphorylation and truncation analysis): minimum core binding sequence within the PD domain

Molecule: DISC1 peptide (residues 197-203, phosphorylated at Thr198 and Ser202) pT198E; pS202mD (N-methyl Asp)
percent of parent [1]: 230 % of control

Molecule: DISC1 peptide (residues 197-203, phosphorylated at Thr198 and Ser202) P197G; pT198d (D-Asp); pS202mE (N-methyl Glu)
percent of parent [1]: 250 % of control

Molecule: GmDPPGmEH [I14, substituted DISC1 PD core peptide GmDPPGmEH]
binding potential for the FBXW7 complex vs dually-phosphorylated control sequence [2]: more than a twofold increase in binding potential

Molecule: DISC1 peptide (residues 197-203, phosphorylated at Thr198 and Ser202) pT198E; pS202d (D-Asp)
percent of parent [1]: 210 % of control

Molecule: P[pT]PPG[pS]H [DISC1 peptide (residues 197-203, phosphorylated at Thr198 and Ser202)]
Kd [3]: 17 µM

Continued, in another order:

measurable enthalpy signal / ITC signal (Skp1-FBXW7 complex; ITC, 25 °C, pH 7.4; singly phosphorylated peptides; pT198)): No ITC signal
Molecule: DISC1^193–207/pT198: singly phosphorylated DISC1 peptide (PEVPP[pT]PPGSHSAFT)
measurable enthalpy signal / ITC signal (Skp1-FBXW7 complex; [5]): neither of the singly phosphorylated DISC1^193–207/pT198 and DISC1^193–207/pS202 peptides gave a measurable enthalpy signal

percent of parent [1]: 220 % of control and 190 % of control
Molecule: DISC1 peptide (residues 197-203, phosphorylated at Thr198 and Ser202) pT198d (D-Asp); pS202mE (N-methyl Glu)

measurable enthalpy signal / ITC signal (Skp1-FBXW7 complex; ITC, 25 °C, pH 7.4; singly phosphorylated peptides; pS202)): No ITC signal
Molecule: DISC1^193–207/pS202: singly phosphorylated DISC1 peptide (PEVPPTPPG[pS]HSAFT)
measurable enthalpy signal / ITC signal (Skp1-FBXW7 complex; [5]): neither of the singly phosphorylated DISC1^193–207/pT198 and DISC1^193–207/pS202 peptides gave a measurable enthalpy signal

Kd (Skp1-FBXW7 complex; ITC, 25 °C): 1 ± 0.2 µM
Molecule: CC(C)[C@H](NC(=O)[C@H](CCC(=O)O)NC(=O)[C@@H]1CCCN1)C(=O)N1CCC[C@H]1C(=O)N1CCC[C@H]1C(=O)N[C@H](C(=O)N1CCC[C@H]1C(=O)N1CCC[C@H]1C(=O)NCC(=O)N[C@@H](COP(=O)(O)O)C(=O)N[C@@H](Cc1c[nH]cn1)C(=O)N[C@@H](CO)C(=O)N[C@@H](C)C(=O)N[C@@H](Cc1ccccc1)C(=O)N[C@H](C(=O)O)[C@@H](C)O)[C@@H](C)OP(=O)(O)O [DISC1^193–207/pT198/pS202] (H-PEVPP[pT]PPG[pS]HSAFT-OH)

Kd [3]: 1 µM
binding result [4]: binds
B1: DISC1 peptide (residues 193-207, phosphorylated at Thr198 and Ser202) (peptide, UniProt Q9NRI5 193-207, looked up)
peptide: PEVPP[pT]PPG[pS]HSAFT
notes: printed residues: Pro193, Glu194, Val195, Pro196, Pro197, Thr198, Pro199, Pro200, Gly201, Ser202, His203; also called 15-residue core peptide; source: synthetic peptide, purified by HPLC
